Laboratory results: PMC6061780

Molecular target: Sc eIF4E (residues T25–L213), His6 tag removed (Saccharomyces cerevisiae) (UniProt P07260)
Assay: ITC

Chain of Sc eIF4E (residues T25–L213), His6 tag removed (Saccharomyces cerevisiae) (P07260 25-213): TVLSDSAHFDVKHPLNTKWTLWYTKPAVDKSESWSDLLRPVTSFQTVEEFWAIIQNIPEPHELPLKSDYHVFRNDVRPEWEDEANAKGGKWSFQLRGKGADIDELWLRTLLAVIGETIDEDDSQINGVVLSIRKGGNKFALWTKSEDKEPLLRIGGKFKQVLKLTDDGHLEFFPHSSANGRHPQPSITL
Chain of Sc p20 canonical motif (C)-GB1 (domain or fragment) (P12962 whole entry, the tested form may be a part): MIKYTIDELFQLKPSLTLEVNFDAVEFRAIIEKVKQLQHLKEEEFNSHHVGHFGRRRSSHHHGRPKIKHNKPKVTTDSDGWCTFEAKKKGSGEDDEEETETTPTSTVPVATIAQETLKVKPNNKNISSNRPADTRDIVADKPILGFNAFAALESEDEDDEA

Kd [nM]	Substance
70	Sc eIF4G (residues V448–N500; C+L+NC)-GB1 (from UniProt P39935 448-500) (domain or fragment)
2000	Sc eIF4G canonical motif (C)-GB1 (domain or fragment)
20	Sc p20 canonical motif (C)-GB1 (domain or fragment)
